Laboratory results: US20250340623A1 (AC IMMUNE, published 2025)
Where no end group is shown, it is not given here. The star is where a group is joined. Biotin = O=C1N[C@H]2[C@H](CS[C@H]2CCCCC(=O)*)N1; Ahx = NCCCCCC(=O)O

T1: 82-96aa
T1 construct: also called alpha-synuclein peptide 82-96
T1 peptide: {Biotin-Ahx}-VEGAGSIAAATGFVK

T2: 91-105aa
T2 peptide: {Biotin-Ahx}-ATGFVKKDQLGKNEE

T3: 118-132aa
T3 peptide: {Biotin-Ahx}-VDPDNEAYEMPSEEG

T4: 127-140aa
T4 peptide: {Biotin-Ahx}-MPSEEGYQDYEPEA

T5: 10-24aa
T5 construct: also called alpha-synuclein peptide 10-24
T5 peptide: {Biotin-Ahx}-KAKEGVVAAAEKTKQ

T6: 46-60aa
T6 construct: also called alpha-synuclein peptide 46-60
T6 peptide: {Biotin-Ahx}-EGVVHGVATVAEKTK

T7: 1-14aa
T7 construct: also called alpha-synuclein peptide 1-14
T7 peptide: MDVFMKGLSKAKEG-biotin

T8: 1-15aa
T8 construct: also called alpha-synuclein peptide 1-15
T8 peptide: {Biotin-Ahx}-MDVFMKGLSKAKEGV

T9: 64-78aa
T9 construct: also called alpha-synuclein peptide 64-78
T9 peptide: {Biotin-Ahx}-TNVGGAVVTGVTAVA

B1: ACI-7079-2603C1-Ab3 (antibody, V domains shown)
VH: QVQLQQPGADLVKPGASVKLSCKASGYTFTSYWMQWTKQRPGQGLEWIGEIDPSDSYANYNQKFKGKATLTVDKYSSTAYMQLNSLTSEDSAVYYCALYDGPSYWGQGTLVTVS
VL: ENVLTQSPAIMSASPGEKVTMTCSAGSSVSYMHWFQQKSSTSPKLWIYDTSKLPSGVPGRFSGSGSGNSYSLTISSMEAEDVATYYCFQGSGYPYTFGGGTKLEIK
notes: mouse hybridoma mAb; VH/VL only; also called 2603C1H6
B2: ACI-7067-1206E5-Ab1 (antibody, V domains shown)
VH: QVQLQQSGPELVKPGASVKMSCKASGYTFTDYVISWVKQGTGQGLEWIGEIYPGNDSTYYNEKFKGKATLTADKSSNTAYMQLSSLTSEDSAVYFCAREGVSNGYLYLSMDYWGQGTSVTVSS
VL: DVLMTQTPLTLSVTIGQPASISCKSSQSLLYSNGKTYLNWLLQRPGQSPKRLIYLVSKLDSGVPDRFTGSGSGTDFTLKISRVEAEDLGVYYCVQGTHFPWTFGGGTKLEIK
notes: mouse hybridoma mAb; VH/VL only; also called 1206E5D2
B3: ACI-7079-2506F3-Ab1 (antibody, V domains shown)
VH: QVQLQQPGAELVKPGASVKLSCKASGYTFTTYWMQWVKQRPGQGLEWIGEIDPSDSYINYNQKFKGKATLTVDTSSSTAFMQLSSLTSEDSAVYYCARGMMDYWGQGTSVTVSS
VL: DVLMTQTPLSLPVSLGDQASISCRSSQSIVHSNGNTYLEWYLQKPGQSPKLLIYKVSNRFSGVPDRFSGSGSGTDFTLKISRVEAEDLGVYYCFKGSHVPYTFGGGTKLEIK
notes: mouse hybridoma mAb; VH/VL only; also called 2506F3E12
B4: ACI-8032-6313G2-Ab1 (antibody, V domains shown)
VH: EVQLQQSGPELVKPGASVKISCKASGYTFTDYYMNWVKQSHGKSLEWIGDIDPNNGVTSYSQKFKGKATLTVDKSSSTAYMELRSLTSEDSAVYYCARTGYYGTSLYYAMDYWGQGTSVTVSS
VL: DIVMSQSPSSLAVSAGEKVTMNCKSSQSLLNSRTRKNYLAWYQQKPGQSPKLLIYWASTRESGVPDRFIGSGSGTGFTLTISSVQAEDLAVYYCKQSYDLWTFGGGTKLEIK
notes: mouse hybridoma mAb; VH/VL only; also called 6313G2A10
B5: ACI-7067-4813-R4A-G7-rec1 (antibody, mouse IgG2a, V domains shown)
VH: EVQLEESGGGLVHPKGSLKLSCAASGFTFNSYAMHWVRQAPGKGLEWVARIRSKRSNYATYYADSVKDRFTISRDDSQSMVYLEMNNLEAEDTATYYCVRGGREAMDFWGQGTSVTVSS
VL: QAVVTQESALTTSPGETVTLTCRSSTGAVTTSNYANWVQEKPDHLFTGLIGGTNNRAPGVPARFSGSLIGDKAALTITGAQTEDEAIYFCALWYSNHWVFGGGTKLTVL
notes: from phage display of immunised mice; positive clones expressed recombinantly as murine IgG2a; VH/VL only; also called ACI-7067-R4A-G7-Ab-1

How the values were obtained:
82-96aa = target: T1, 82-96aa; assay: indirect ELISA on biotinylated 15-mer peptide
91-105aa = target: T2, 91-105aa; assay: indirect ELISA on biotinylated 15-mer peptide
118-132aa = target: T3, 118-132aa; assay: indirect ELISA on biotinylated 15-mer peptide
127-140aa = target: T4, 127-140aa; assay: indirect ELISA on biotinylated 15-mer peptide
10-24aa [1] = target: T5, 10-24aa; assay: indirect ELISA on biotinylated 15-mer peptide
46-60aa = target: T6, 46-60aa; assay: indirect ELISA on biotinylated 15-mer peptide
1-14aa [2] = target: T7, 1-14aa; assay: indirect ELISA on biotinylated peptide, supernatant 1/100
Protocol: Serum-free supernatants were harvested from stable hybridomas. The supernatants containing antibodies of interest were then screened by an indirect ELISA assay to determine epitopes. Epitopes were first determined using a library of 15-mer peptides covering the entire sequence of human alpha-synuclein protein, spanning amino acids (aa) 1-140 with 9aa offset and […] overlap. […] Briefly, streptavidin-coated ELISA plates were blocked overnight at 4° C. […] Plates were washed with PBS/0.05% Tween®20 and then incubated with the hybridoma supernatants at 1/100 dilution for 1 hour at 25° C.

1-15aa [3] = target: T8, 1-15aa; assay: indirect ELISA on biotinylated 15-mer peptide, supernatant 1/100
[4] = target: T10, monomeric alpha-synuclein (UniProt P37840 1-140); assay: SPR, captured mAb
Protocol: (§1) Non-covalent immobilization of alpha-synuclein antibodies was performed using a target immobilization method of 2000 response units (RU). Antibodies were diluted in 10 mM sodium acetate pH 5.5 (GE Healthcare, BR-1003-52) to a final concentration of 5 μg/mL.
(§2) Binding affinity of alpha-synuclein antibodies to monomeric or fibrillar alpha-synuclein species was performed using a single-cycle kinetics method. The instrument was primed with 1×HBS-P+ buffer (10× stock from GE Healthcare, BR-1003-52 diluted in Milli-Q water). Injections of monomeric alpha-synuclein (aSyn) (Boston Biochem, SP-485), increasing in concentration from 0.62-50 nM prepared from serial 2-fold dilutions, were performed with contact times of 300 sec/injection at a flow rate of 30 μL/min. A dissociation phase of 900 sec followed the final 50 nM injection. Regeneration of the sensor to the goat anti-mouse antibody layer was achieved using 3 regenerations of 10 mM Glycine pH 1.7. […] Regeneration of the sensor to the goat anti-mouse antibody layer was achieved using 3 regenerations of 10 mM Glycine pH 1.7. Results obtained from single-cycle kinetics were evaluated by Biacore T200 evaluation software with 1:1 binding homogenous Langmuir model (with a global Rmax) with Cycle 5 as a blank subtraction. The following kinetic parameters were obtained: on-rate (ka), off-rate (kd), affinity constant (KD, ratio of kd by ka), maximum response (Rmax), and goodness of fit (Chi2).
(§3) Non-covalent capture of the alpha-synuclein antibodies was performed in three separate runs.

alpha-synuclein fibrils [5] = target: T11, alpha-synuclein fibrils (UniProt P37840 1-140); assay: SPR, captured mAb
Protocol: as §1, §2, §3

64-78aa = target: T9, 64-78aa; assay: indirect ELISA on biotinylated 15-mer peptide
[6] = target: human full-length alpha-synuclein (human, UniProt P37840 1-140); assay: indirect ELISA on coated full-length alpha-synuclein, O.D. 405 nm
Protocol: Antibody binding to human full-length alpha-synuclein was determined using an indirect ELISA. Full-length alpha-synuclein was diluted in carbonate/bicarbonate buffer pH 9.6 (Sigma, C3041) to a final concentration of 2.5pg/ml and coated onto ELISA plates overnight at 4° C. After washing with PBS/0.05% Polyethylene glycol sorbitan monolaurate (Tween®20) and blocking for 1 hour at 37° C. (PBS/0.05% Tween®20/1% BSA), plates were incubated for 2 hours at 37° C. with three-fold dilution series of alpha-synuclein antibodies from 1 μg/mL to 0.0005 μg/mL using PBS/0.05% Tween®20/1% BSA as diluent.

28-42aa = assay: indirect ELISA on biotinylated 15-mer peptide, supernatant 1/100
alpha-synuclein seeds = alpha-synuclein seeds (UniProt P37840 1-140); assay: cell-based or functional assay
1-14aa [7] = target: T7, 1-14aa; assay: indirect ELISA on biotinylated 15-mer peptide
1-15aa [8] = target: T8, 1-15aa; assay: indirect ELISA on biotinylated 15-mer peptide
10-24aa [9] = target: T5, 10-24aa; assay: indirect ELISA on biotinylated 15-mer peptide, supernatant 1/100
alpha-synuclein fibrils [10] = target: T11, alpha-synuclein fibrils; assay: SPR, captured mAb; alpha-synuclein fibrils
Protocol: Any non-covalently bound antibodies were removed by three successive regenerations of 10 mM Glycine pH 1.7 (GE Healthcare, 28-9950-84). Immobilization levels were evaluated following ethanolamine capping (Bound) and finally following regeneration (Final). Non-covalent immobilization of alpha-synuclein antibodies was performed using a target immobilization method of 2000 response units (RU). Antibodies were diluted in 10 mM sodium acetate pH 5.5 (GE Healthcare, BR-1003-52) to a final concentration of 5 μg/mL.
Binding affinity of alpha-synuclein antibodies to monomeric or fibrillar alpha-synuclein species was performed using a single-cycle kinetics method. The instrument was primed with 1×HBS-P+ buffer (10× stock from GE Healthcare, BR-1003-52 diluted in Milli-Q water). Injections of monomeric alpha-synuclein (aSyn) (Boston Biochem, SP-485), increasing in concentration from 0.62-50 nM prepared from serial 2-fold dilutions, were performed with contact times of 300 sec/injection at a flow rate of 30 μL/min. A dissociation phase of 900 sec followed the final 50 nM injection. Regeneration of the sensor to the goat anti-mouse antibody layer was achieved using 3 regenerations of 10 mM Glycine pH 1.7. […] Results obtained from single-cycle kinetics were evaluated by Biacore T200 evaluation software with 1:1 binding homogenous Langmuir model (with a global Rmax) with Cycle 5 as a blank subtraction. […]

[11] = target: T10, monomeric alpha-synuclein; assay: SPR, captured mAb; alpha-synuclein monomers
Protocol: as §1
Binding affinity of alpha-synuclein antibodies to monomeric or fibrillar alpha-synuclein species was performed using a single-cycle kinetics method. The instrument was primed with 1×HBS-P+ buffer (10× stock from GE Healthcare, BR-1003-52 diluted in Milli-Q water). Injections of monomeric alpha-synuclein (aSyn) (Boston Biochem, SP-485), increasing in concentration from 0.62-50 nM prepared from serial 2-fold dilutions, were performed with contact times of 300 sec/injection at a flow rate of 30 μL/min. A dissociation phase of 900 sec followed the final 50 nM injection. Regeneration of the sensor to the goat anti-mouse antibody layer was achieved using 3 regenerations of 10 mM Glycine pH 1.7. […] Regeneration of the sensor to the goat anti-mouse antibody layer was achieved using 3 regenerations of 10 mM Glycine pH 1.7. Results obtained from single-cycle kinetics were evaluated by Biacore T200 evaluation software with 1:1 binding homogenous Langmuir model (with a global Rmax) with Cycle 5 as a blank subtraction. […]

Row | Binder | binding result (82-96aa) | binding result (91-105aa) | binding result (118-132aa) | binding result (127-140aa) | binding result (46-60aa) | koff [4] | kon [4] | koff (alpha-synuclein fibrils [5]) | kon (alpha-synuclein fibrils [5]) | Kd (alpha-synuclein fibrils [10]) | Kd [11] | further results
1 | B1 | no binding (tested: supernatant 1/100) | no binding (tested: supernatant 1/100) | no binding (tested: supernatant 1/100) | no binding (tested: supernatant 1/100) | no binding (tested: supernatant 1/100) | – | – | – | – | – | – | binding result (10-24aa [1]): no binding (tested: supernatant 1/100); binding result (1-14aa [2]): binds; binding result (1-15aa [3]): binds
2 | B2 | no binding (tested: supernatant 1/100) | – | no binding (tested: supernatant 1/100) | no binding (tested: supernatant 1/100) | no binding (tested: supernatant 1/100) | 6.36e-05 s⁻¹ | 165000 M⁻¹ s⁻¹ | 0.000405 s⁻¹ | 57300 M⁻¹ s⁻¹ | – | – | Kd [4]: 0.4 nM; Kd (alpha-synuclein fibrils [5]): 8.3 nM; binding result (64-78aa): no binding (tested: supernatant 1/100); EC50 (read off the curve) [6]: ~0.04 µg/mL; binding result (28-42aa): binds
3 | B3 | no binding (tested: supernatant 1/100) | no binding (tested: supernatant 1/100) | no binding (tested: supernatant 1/100) | no binding (tested: supernatant 1/100) | no binding (tested: supernatant 1/100) | – | – | – | – | – | – | aggregation half-time (τ1/2) of seeded alpha-synuclein aggregation, ThT; no antibody 26.9 hours (alpha-synuclein seeds): 34.2 h; binding result (1-14aa [7]): no binding (tested: supernatant 1/100); binding result (1-15aa [8]): no binding (tested: supernatant 1/100); binding result (10-24aa [9]): binds
4 | B4 | – | – | – | – | – | 0.000541 s⁻¹ | 33500 M⁻¹ s⁻¹ | 0.000829 s⁻¹ | 338 M⁻¹ s⁻¹ | 2460 nM | 16.2 nM | –
5 | B5 | – | – | – | – | – | 0.0737 s⁻¹ | 735000 M⁻¹ s⁻¹ | 1.34e-07 s⁻¹ | 4760 M⁻¹ s⁻¹ | 0.041 nM | 97 nM | –
